Experimental data taken from paper PMC6167325, “Outward open conformation of a Major Facilitator Superfamily multidrug/H^+ antiporter provides insights into switching mechanism” (Nature Communications, 2018).

Target: T1, MdfA, major facilitator superfamily (MFS) drug/H+ antiporter from Escherichia coli (Escherichia coli, UniProt P0AEY8)
T1 construct: MdfA, multidrug/H+ antiporter of E. coli; wild type; the final model of the complex holds residues Gln14-Lys400; One complex in the asymmetric unit; also called MFS-MDR transporter; source: purified
T1 sequence (P0AEY8 whole entry, the tested form may be a part): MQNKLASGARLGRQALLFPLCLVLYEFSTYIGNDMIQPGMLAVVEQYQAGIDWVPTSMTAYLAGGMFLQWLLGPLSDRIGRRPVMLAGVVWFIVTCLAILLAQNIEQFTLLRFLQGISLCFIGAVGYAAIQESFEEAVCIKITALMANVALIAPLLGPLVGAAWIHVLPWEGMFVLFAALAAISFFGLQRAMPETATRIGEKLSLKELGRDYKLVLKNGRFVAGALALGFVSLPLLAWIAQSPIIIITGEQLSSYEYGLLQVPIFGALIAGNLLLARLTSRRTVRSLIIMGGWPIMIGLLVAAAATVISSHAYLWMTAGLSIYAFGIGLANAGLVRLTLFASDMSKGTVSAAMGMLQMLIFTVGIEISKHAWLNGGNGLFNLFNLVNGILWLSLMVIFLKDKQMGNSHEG
Experiment: crystal structure; co-crystals of MdfA in complex with the Fab fragment grown in the lipidic cubic phase; 3.4 Å; space group P6(1)22, one complex in the asymmetric unit; data at 100 K
Settings: both partners purified

B1: Fab YN1074 (Fab, V domains shown)
VH: EVQLKESGPGLVAPSQSLSITCTVSGFSFSIYGLHWVRQPPGKGLEWLGMIWGGGRTDYNSALKSRLSISKDNSKSQVFLKMKSLQTDDTAMYYCARNSGYGNLAYWGQGTLVTVSA
VL: DIVMTQSPSSLSASLGERVSLTCRASQDIGYSLNWLQQEPDGTIKRLIYATSNLDSGVPKRFSGSRSGSDYSLTISSLESEDFVDYYCLQYASSPYTFGGGTKLEIK
notes: the model holds residues Leu4-Pro216; the model holds residues Asp1-Arg211; also called Fab fragment
B1: binds.
